± gives the uncertainty stated by the source.
Experiment: amyloid nucleation score (Sup35N fusion, yeast selection) (log enrichment); library NNK1; higher = more nucleation; inactive = no reads after selection
Summary of the method: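 After 24 hours of induction with 100 μM copper sulfate, psi-negative yeast expressing peptides of 20 random codons fused to Sup35N were grown for 7 days at 30°C on medium lacking adenine and uracil. Input and output plasmid inserts were sequenced with Illumina, and sequences with under 100 input reads were discarded. Scores for nucleation are the DiMSum log enrichment of output over input reads, centred on the mode score of non-aggregating sequences.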

| Substance | amyloid nucleation score |
| --- | --- |
| ALSFHYKNLVNT | 0.027 ± 0.49 |
| ALSSWLCGSG | 0.746 ± 0.9 |
| ALVTWWSYHSLMVSGCKVRS | -0.299 ± 0.59 |
| ALVYANPMTVWPSGSLTSVL | 0.685 ± 0.47 |
| ALWCMRSTSRLGKCFGLVIY | -0.945 ± 0.77 |
| ALYPPAGAGLRECRARSLSA | 0.341 ± 0.5 |
| AMCCYGYVCCFYGSEVG | 5.51 ± 0.078 |
| AMGRLYS | -0.41 ± 0.3 |
| AMGTLVIKGRYFYIFSASFG | -1.52 ± 2.4 |
| AMIPNVRVYVVVITNISFCV | 0.736 ± 0.26 |
| AMNRHGLWKSSVSRGILFFS | 0.129 ± 0.35 |
| AMWSSLIDMCNNG | 0.35 ± 0.25 |
| ANCFPLCRKNLGRSGVNNVR | -0.452 ± 0.74 |
| ANENLMNRYITNKRSCWCRW | -0.728 ± 0.48 |
| ANGADCYSLSKTEYYYGKTL | -0.129 ± 1.6 |
| ANISSGKFVRGSCENLARLR | -0.805 ± 0.59 |
| ANMDWGRAMFWDGRVGMVRS | -0.645 ± 1.7 |
| ANSGTRIRFYICWFKSETTW | 1.87 ± 0.1 |
| ANSSFLYTSEHFRHVMAWFG | -0.075 ± 0.68 |
| APCQYSFVSVSYSTVNWLMT | 8.933 ± 0.071 |
| APLEFWRGTVVAWLWYLCPF | 0.303 ± 0.41 |
| APQSYVVVWFCVARKRCSWD | -0.303 ± 0.53 |
| APSAVS | 0.876 ± 0.53 |
| ARAVFLGEVGSAFFCRQSVW | 0.273 ± 0.74 |

| Substance | amyloid nucleation score |
| --- | --- |
| ARIMFVPWSLNDLWLGRFSM | -0.263 ± 0.45 |
| ARLLSQVEAEASWSNTY | 0.568 ± 0.43 |
| ARRLFAAMLLRDWVPLTSQM | 1.27 ± 0.66 |
| ARSSK | -0.081 ± 0.23 |
| ARSVKAIIKAICRGV | -0.055 ± 0.95 |
| ARTKGSVAPTTLHANNGAWS | -0.053 ± 0.39 |
| ARTRVTLSR | -0.072 ± 0.98 |
| ARVTVNGFLWCYNLGIRLDF | -0.779 ± 1.6 |
| ARWLIEAVWSMYRFHYIGKR | -0.722 ± 0.52 |
| ASAWARNVVRSTVMKVSWVG | 0.543 ± 0.45 |
| ASDMSCMQSNSYFNLCTYTM | 5.28 ± 0.064 |
| ASFHNVQIGAYNMCKMNKGC | 1.75 ± 0.34 |
| ASKMALYPG | 0.366 ± 0.56 |
| ASMID | 0.002 ± 0.27 |
| ASRYRKFTLWN | -0.466 ± 0.31 |
| ASVILIVPINLYLYVVYVWI | 3.2 ± 0.15 |
| ATGINTGMTSNYSVMEMWGF | 0.937 ± 0.48 |
| ATQRKDIA | inactive |
| ATQSVFSKWVGGIRWWCVLL | -0.65 ± 0.88 |
| ATRFTR | 0.282 ± 0.5 |
| ATTALAMGGSNDTMGYGVRC | 0.006 ± 0.4 |
| ATYAYRFRLVSTIICLD | -0.222 ± 1.4 |
| AVDMTWYIVVSMLHMLDASV | 1.26 ± 0.76 |
| AVGSDWDVYWVPRRMRMMCS | -1.84 ± 2.7 |

| Substance | amyloid nucleation score |
| --- | --- |
| AVIEYR | -0.582 ± 0.32 |
| AVMCYDNTSSNVSFN | -0.279 ± 0.28 |
| AVRVTLKL | 1.31 ± 0.2 |
| AVYGAECDCAWFTPYSVVAD | 0.19 ± 0.36 |
| AWGCMMAYFTGRLISEVSNS | -0.529 ± 0.36 |
| AWHEGFHCCN | 1.21 ± 0.31 |
| AWHTRPQTKTERPLRPVFRA | -0.733 ± 0.69 |
| AWLLLEDWFVNRVILICGAK | 0.027 ± 0.27 |
| AYAILMRKMVIHADLLARC | -0.006 ± 0.7 |
| AYCTLNR | 0.603 ± 0.36 |
| AYFMDASFNVFIDISFGGGL | 8.115 ± 0.046 |
| AYIKNQ | -0.305 ± 0.47 |
| AYKGMSLPDRIFKWLVWWHN | 0.008 ± 0.53 |
| AYKVSRKLKVLRFDFIEV | -0.477 ± 0.71 |
| AYNIVDRSYLGSCKPESFVG | 0.469 ± 0.44 |
| AYRNKETMCSLRTCRMVCSR | 0.206 ± 0.34 |
| AYVKLILCLCRNLDWK | 2.98 ± 0.24 |
| AYYVRGRNLLFVTIGYGYLC | -1 ± 1 |
| CACVIRIFNLMVMWDILYWS | 0.748 ± 1.2 |
| CARYNASDRGEASYLIEHCG | -0.224 ± 0.57 |
| CAYSNKE | 0.228 ± 0.34 |
| CCFRRVTSRVPGRTMEGNCF | -0.264 ± 1.2 |
| CCGLSDLYDVAVERVGGLLN | -1.26 ± 1.1 |

— the supplement of paper PMC12042874
